Laboratory results from US20220088148A1 (HANMI PHARM, published 2022).
Bridges are numbered along the chain shown (N, C = ends). Where no end group is shown, it is not given here. [ ]: non-standard residue; d: D form. The star is where a group is joined. Acetyl(2-(4-imidazolyl)) = O=C(Cc1c[nH]cn1)*; Aib = CC(C)(N)C(=O)O

What was measured:
Test in all cases: cell-based or functional assay
human GLP-1 receptor = human GLP-1 receptor (human, UniProt P43220 24-463)
human GCG receptor = human GCG receptor (human, UniProt P47871 26-477)
human GCG receptor, sequence (P47871 26-477): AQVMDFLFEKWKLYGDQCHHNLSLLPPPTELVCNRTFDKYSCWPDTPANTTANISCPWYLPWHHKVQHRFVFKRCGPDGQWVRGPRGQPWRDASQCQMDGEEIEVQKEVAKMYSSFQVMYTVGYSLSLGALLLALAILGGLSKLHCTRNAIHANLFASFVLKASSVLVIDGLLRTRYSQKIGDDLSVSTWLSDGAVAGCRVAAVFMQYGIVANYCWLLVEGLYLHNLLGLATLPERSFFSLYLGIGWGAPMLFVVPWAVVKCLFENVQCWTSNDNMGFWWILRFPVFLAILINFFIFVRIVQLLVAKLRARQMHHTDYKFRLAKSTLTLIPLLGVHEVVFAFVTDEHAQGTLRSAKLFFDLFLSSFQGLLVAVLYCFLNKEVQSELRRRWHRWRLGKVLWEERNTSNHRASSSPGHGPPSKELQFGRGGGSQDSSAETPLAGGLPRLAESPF

human GIP receptor = target: T1, human GIP receptor (human, UniProt P48546 22-466)
T1 sequence (looked up): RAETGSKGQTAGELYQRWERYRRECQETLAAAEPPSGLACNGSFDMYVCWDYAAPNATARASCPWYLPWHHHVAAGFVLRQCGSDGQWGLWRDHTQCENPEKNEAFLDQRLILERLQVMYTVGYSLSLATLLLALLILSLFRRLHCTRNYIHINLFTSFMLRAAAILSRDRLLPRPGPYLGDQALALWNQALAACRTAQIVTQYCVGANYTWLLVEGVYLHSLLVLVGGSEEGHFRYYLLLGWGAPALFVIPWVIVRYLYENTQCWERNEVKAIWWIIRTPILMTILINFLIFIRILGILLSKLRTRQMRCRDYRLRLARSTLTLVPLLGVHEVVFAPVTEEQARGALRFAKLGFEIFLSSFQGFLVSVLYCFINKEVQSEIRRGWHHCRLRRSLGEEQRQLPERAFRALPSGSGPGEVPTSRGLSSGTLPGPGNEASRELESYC

Binder | In vitro activity (%) vs. GLP-1, cAMP EC50 (human GLP-1 receptor) [%] | In vitro activity (%) vs. Glucagon, cAMP EC50 (human GCG receptor) [%] | In vitro activity (%) vs. GIP, cAMP EC50 (human GIP receptor) [%]
[Acetyl(2-(4-imidazolyl))]GQGTFTSDLSKQMDSEAQQLFIEWLKNGGPSSGAPPPSHG [triple agonist of SEQ ID NO: 16] | 2.1 | < 0.1 | < 0.1
Y[Aib]QGTFTSDYSKYLDEKRAKEFVQWLLCHHPSSGQPPPS (bridge 16-20) [triple agonist of SEQ ID NO: 95] | 2.1 | 0.4 | < 0.1
[Acetyl(2-(4-imidazolyl))]GEGTFISDYSIQLDEIAVQDFVEWLLAQKPSSGAPPPSHG [triple agonist of SEQ ID NO: 13] | < 0.1 | < 0.1 | < 0.1
{Acetyl(2-(4-imidazolyl))}-[Aib]QGTFTSDYSIAMDEIHQKDFVNWLLNTC (bridge 15-19) [triple agonist of SEQ ID NO: 87] | 0.9 | < 0.1 | < 0.1
Y[Aib]QGTFTSDYSKALDEKAAKDFVNWLLDQHPSSGQPPPSC (bridge 16-20; ends not checked) [triple agonist of SEQ ID NO: 102] | 23.3 | 29.5 | 58
{Acetyl(2-(4-imidazolyl))}-[Aib]QGTFTSDYSIAMDEIHQKDFVNWLLNTKC (bridge 15-19) [triple agonist of SEQ ID NO: 94] | 0.5 | < 0.1 | < 0.1
Y[Aib]QGTFTSDYSKALDEKAAKDFVNWLLDHHPSSGQPPPSC (bridge 16-20; ends not checked) [triple agonist of SEQ ID NO: 99] | 20.9 | 14.9 | 57.7
{Acetyl(2-(4-imidazolyl))}-[Aib]QGTFTSDYSKYLDEKRQKEFVQWLLDTKC (bridge 15-19) [triple agonist of SEQ ID NO: 89] | 7.1 | 0.7 | < 0.1
[Acetyl(2-(4-imidazolyl))]GQGTFTSDLSKQMDSERAREFIEWLKNTGPSSGAPPPSHG [triple agonist of SEQ ID NO: 18] | < 0.1 | < 0.1 | < 0.1
{Acetyl(2-(4-imidazolyl))}-[Aib]QGTFTSDYSKYLDEKRQKEFVQWLLNTKC (bridge 15-19) [triple agonist of SEQ ID NO: 88] | 9.6 | 0.3 | < 0.1
H[Aib]QGTFTSDVSKYLDGQAAQEFVAWLLAGGGPSSGAPPPSC [triple agonist of SEQ ID NO: 10] | 46 | < 0.1 | < 0.1
{Acetyl(2-(4-imidazolyl))}-[Aib]QGTFTSDYSKYLDEKRQKEFVNWLLAQKC (bridge 15-19) [triple agonist of SEQ ID NO: 93] | 5.7 | 0.3 | 0.7
Y[Aib]QGTFTSDYSKYLDEKRAKEFVQWLLDHCPSSGQPPPS (bridge 16-20) [triple agonist of SEQ ID NO: 96] | 34.4 | 195 | 5.2
{Acetyl(2-(4-imidazolyl))}-[Aib]EGTFTSDYSIAMDEIHQKDFVDWLLAEKC (bridge 15-19) [triple agonist of SEQ ID NO: 91] | 31.9 | 16.8 | 0.3
[Acetyl(2-(4-imidazolyl))]GEGTFISDLSKYMDEQAVQLFVEWLMAGGPSSGAPPPSHG [triple agonist of SEQ ID NO: 12] | 0.4 | < 0.1 | < 0.1
{Acetyl(2-(4-imidazolyl))}-[Aib]EGTFTSDYSIAMDEIHQKDFVNWLLAQKC (bridge 15-19) [triple agonist of SEQ ID NO: 90] | 7.4 | < 0.1 | < 0.1
Y[Aib]QGTFTSDYSKALDEKAAKEFVQWLLDQHPSSGQPPPSC (bridge 16-20) [triple agonist of SEQ ID NO: 100] | 42.2 | 12.7 | 118
H[Aib]QGTFTSDVSSYLDGQAQKEFIAWLVKGC [triple agonist of SEQ ID NO: 2] | 5.9 | < 0.1 | < 0.1
[Acetyl(2-(4-imidazolyl))]GQGTFTSDYSIQLDEIAVRDFVEWLKNGGPSSGAPPPSHG [triple agonist of SEQ ID NO: 14] | 28 | < 0.1 | < 0.1
Y[Aib]QGTFTSDYSKYLDEKRAKEFVQWLLDCHPSSGQPPPS (bridge 16-20; ends not checked) [triple agonist of SEQ ID NO: 97] | 10.5 | 62.8 | 2.6
[Acetyl(2-(4-imidazolyl))]GQGTFTSDLSKQMDEERAREFIEWLLAQKPSSGAPPPSHG [triple agonist of SEQ ID NO: 17] | 0.2 | < 0.1 | < 0.1
{Acetyl(2-(4-imidazolyl))}-[Aib]QGTFTSDYSIAMDEIHQKDFVNWLLAQKC (bridge 15-19) [triple agonist of SEQ ID NO: 92] | 0.8 | < 0.1 | 0.4
[Acetyl(2-(4-imidazolyl))]GQGTFTSDLSIQYDSEHQRDFIEWLKDTGPSSGAPPPSHG [triple agonist of SEQ ID NO: 19] | < 0.1 | < 0.1 | < 0.1
Y[Aib]QGTFTSDYSKALDEKAAKEFVNWLLDHHPSSGQPPPSC (bridge 16-20; ends not checked) [triple agonist of SEQ ID NO: 98] | 28.1 | 8.2 | 47.1
Y[Aib]QGTFTSDYSKALDEKAAKEFVNWLLDQHPSSGQPPPSC (bridge 16-20) [triple agonist of SEQ ID NO: 101] | 23.2 | 13.9 | 40.1
{Acetyl(2-(4-imidazolyl))}-[Aib]QGTFTSDYSKYLDEKRQKEFVNWLLAQC (bridge 15-19) [triple agonist of SEQ ID NO: 86] | 28.4 | 0.4 | 0.2
[Acetyl(2-(4-imidazolyl))]GEGTFTSDLSKYLDSRRQQLFVQWLKAGGPSSGAPPPSHG [triple agonist of SEQ ID NO: 11] | 1.4 | < 0.1 | < 0.1
